From the supplement of paper PMC10567573

B1: KLHL14 (parent)
chain: NETGYLSSVECYNLETNEWRYVSS
B2: SPOPL (parent)
chain: PDDKLTLFCEVSVVQDSVNISGHT
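Note: lentivirally expressed fusions sorted by FACS into six bins by GFP to DsRed ratio, PSI derived from sequencing read proportions per bin multiplied by bin number.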

Variants of: B1
Experiment: protein stability index of a GFP-peptide fusion (GPS, HEK-293T) (PSI 1-6); higher = more stable
Details: c terminus: a fixed tail appended
Variant N17Y has a protein stability index of 2.64.
With E18A the protein stability index was 2.83.
For E18C, the protein stability index was 2.55.
For E18D, the protein stability index was 3.72.
Variant E18F has a protein stability index of 3.41.
With E18G the protein stability index was 2.36.
With E18H the protein stability index was 2.94.
In the case of E18I, the protein stability index is reported as 2.68.
Variant E18K has a protein stability index of 3.48.
With E18L the protein stability index was 3.02.
For E18M, the protein stability index was 2.92.
With E18N the protein stability index was 3.49.
For E18P, the protein stability index was 2.58.
In the case of E18Q, the protein stability index is reported as 2.93.
Variant E18R has a protein stability index of 3.68.
E18S gave a protein stability index of 2.9.
Work on E18T yielded a protein stability index of 3.22.
In the case of E18V, the protein stability index is reported as 2.62.
E18W gave a protein stability index of 2.15.
Variant E18Y has a protein stability index of 2.57.
With W19A the protein stability index was 4.75.
With W19C the protein stability index was 4.26.
Work on W19D yielded a protein stability index of 4.83.
For W19E, the protein stability index was 4.97.
With W19F the protein stability index was 4.71.
W19H gave a protein stability index of 4.77.
In the case of W19I, the protein stability index is reported as 4.75.
For W19K, the protein stability index was 5.08.
For W19L, the protein stability index was 4.37.
Variant W19M has a protein stability index of 4.36.
W19N gave a protein stability index of 5.05.
For W19P, the protein stability index was 3.66.
In the case of W19Q, the protein stability index is reported as 4.31.
In the case of W19R, the protein stability index is reported as 4.92.
W19S gave a protein stability index of 5.26.
W19T showed a protein stability index of 4.99.
In the case of W19V, the protein stability index is reported as 4.58.
W19Y showed a protein stability index of 4.5.
With R20A the protein stability index was 2.95.
Variant R20C has a protein stability index of 2.43.
Work on R20D yielded a protein stability index of 4.12.
With R20E the protein stability index was 4.04.
Variant R20F has a protein stability index of 2.2.
R20G showed a protein stability index of 3.06.
With R20H the protein stability index was 2.83.
Work on R20I yielded a protein stability index of 2.3.
For R20K, the protein stability index was 3.6.
In the case of R20L, the protein stability index is reported as 1.88.
In the case of R20M, the protein stability index is reported as 2.65.
With R20N the protein stability index was 3.51.
For R20P, the protein stability index was 3.35.
With R20Q the protein stability index was 3.49.
R20S gave a protein stability index of 3.04.
For R20T, the protein stability index was 2.69.
Work on R20V yielded a protein stability index of 2.32.
With R20W the protein stability index was 2.41.
In the case of R20Y, the protein stability index is reported as 2.18.
Y21A gave a protein stability index of 3.79.
Variant Y21C has a protein stability index of 3.57.
Variant Y21D has a protein stability index of 4.
With Y21E the protein stability index was 3.66.
In the case of Y21F, the protein stability index is reported as 1.83.
In the case of Y21G, the protein stability index is reported as 3.14.
In the case of Y21H, the protein stability index is reported as 2.96.
Variant Y21I has a protein stability index of 2.87.
For Y21K, the protein stability index was 2.89.
Y21L showed a protein stability index of 3.1.
Work on Y21M yielded a protein stability index of 3.82.
Y21N showed a protein stability index of 3.67.
Y21P gave a protein stability index of 3.21.
Variant Y21Q has a protein stability index of 3.02.
Y21R showed a protein stability index of 3.24.
Y21S gave a protein stability index of 3.61.
Y21T gave a protein stability index of 3.93.
Work on Y21V yielded a protein stability index of 3.57.
For Y21W, the protein stability index was 3.5.
In the case of V22A, the protein stability index is reported as 3.42.
With V22C the protein stability index was 2.29.
For V22D, the protein stability index was 3.8.
For V22E, the protein stability index was 4.18.
V22F gave a protein stability index of 2.14.
In the case of V22G, the protein stability index is reported as 3.85.
V22H showed a protein stability index of 2.18.
In the case of V22I, the protein stability index is reported as 2.47.
With V22K the protein stability index was 3.25.
V22L showed a protein stability index of 2.81.
Work on V22M yielded a protein stability index of 2.95.
Work on V22N yielded a protein stability index of 3.27.
Work on V22P yielded a protein stability index of 3.16.
For V22Q, the protein stability index was 3.73.
Work on V22R yielded a protein stability index of 3.2.
V22S gave a protein stability index of 2.71.
With V22T the protein stability index was 3.01.
Work on V22W yielded a protein stability index of 2.22.
With V22Y the protein stability index was 3.02.
S23A showed a protein stability index of 3.19.
S23C gave a protein stability index of 3.22.
Work on S23D yielded a protein stability index of 4.24.
With S23E the protein stability index was 3.68.
For S23F, the protein stability index was 3.67.
Work on S23G yielded a protein stability index of 4.02.
With S23H the protein stability index was 3.26.
S23I gave a protein stability index of 4.09.
Work on S23K yielded a protein stability index of 3.27.
S23L gave a protein stability index of 2.07.
S23M gave a protein stability index of 3.59.
In the case of S23N, the protein stability index is reported as 3.98.
In the case of S23P, the protein stability index is reported as 3.39.
In the case of S23Q, the protein stability index is reported as 3.73.
In the case of S23R, the protein stability index is reported as 2.87.
For S23T, the protein stability index was 3.38.
With S23V the protein stability index was 3.76.
With S23Y the protein stability index was 3.71.
For S24A, the protein stability index was 4.1.
For S24C, the protein stability index was 4.
For S24D, the protein stability index was 3.83.
For S24E, the protein stability index was 3.77.
For S24F, the protein stability index was 3.94.
S24G gave a protein stability index of 3.82.
Work on S24H yielded a protein stability index of 3.82.
S24I gave a protein stability index of 3.02.
With S24K the protein stability index was 4.28.
S24L showed a protein stability index of 3.41.
Work on S24M yielded a protein stability index of 3.93.
With S24N the protein stability index was 3.91.
S24P showed a protein stability index of 4.2.
Variant S24Q has a protein stability index of 3.6.
For S24R, the protein stability index was 3.61.
S24T gave a protein stability index of 3.65.
With S24V the protein stability index was 3.38.
In the case of S24W, the protein stability index is reported as 3.44.
S24Y showed a protein stability index of 3.19.

Variants of: B2
Experiment: as above
Details: c terminus: a fixed tail appended
P1A gave a protein stability index of 1.81.
In the case of P1C, the protein stability index is reported as 1.93.
In the case of P1D, the protein stability index is reported as 2.17.
P1E gave a protein stability index of 2.2.
With P1F the protein stability index was 2.36.
In the case of P1G, the protein stability index is reported as 1.99.
For P1H, the protein stability index was 2.18.
With P1I the protein stability index was 3.71.
In the case of P1K, the protein stability index is reported as 2.02.
Work on P1L yielded a protein stability index of 2.2.
In the case of P1M, the protein stability index is reported as 1.81.
With P1N the protein stability index was 2.42.
For P1Q, the protein stability index was 2.02.
P1R gave a protein stability index of 2.1.
Work on P1S yielded a protein stability index of 2.05.
Variant P1T has a protein stability index of 2.
Work on P1V yielded a protein stability index of 1.36.
Variant P1W has a protein stability index of 2.11.
With P1Y the protein stability index was 1.69.
Variant D2A has a protein stability index of 1.61.
With D2C the protein stability index was 1.62.
Variant D2E has a protein stability index of 2.29.
With D2F the protein stability index was 1.5.
D2G showed a protein stability index of 2.44.
With D2H the protein stability index was 2.04.
Variant D2I has a protein stability index of 2.02.
For D2K, the protein stability index was 2.02.
For D2L, the protein stability index was 1.46.
With D2M the protein stability index was 1.61.
For D2N, the protein stability index was 1.44.
D2P showed a protein stability index of 2.71.
In the case of D2Q, the protein stability index is reported as 3.11.
In the case of D2R, the protein stability index is reported as 2.53.
D2S gave a protein stability index of 1.74.
Variant D2T has a protein stability index of 1.38.
